US6335019B1, “Methods for treating sensitivity to protein allergen using peptides which include a T cell epitope recognized by a T cell receptor specific for the protein allergen” (Immulogic Pharmaceutical Corp., priority 1989, dated 2002)

Key:
[1] = system: human IgE (ragweed allergic patient sera); assay: SDS-PAGE Western blot (and ELISA) of ragweed allergic patient IgE binding to pollen, affinity purified and recombinant Amb a I / Amb a II; parameters: key to IgE binding, summarized Western blot data: −: no signal over background; +−: barely discernable over background; +: clearly positive; ++: strongly positive; +++: highly positive
Procedure: As represented in FIG. 1A, a selected monoclonal antibody (designated 4B5/B7) which recognizes an Amb a I preparation unsubjected to denaturing conditions was used to affinity purify from pollen extract a single protein, which is referred to as affinity purified Amb a I. This was carried out, using known techniques, by producing the desired monoclonal antibody, isolating it in large quantities from ascites and immobilizing it on Sepharose (Pharmacia). Aqueous pollen extract was passed over the monoclonal antibody-containing column and a protein species was eluted.
(§1) Furthermore, full-length and truncated cDNAs encoding several members of the Amb a I multigene family, as well as Amb a II, were cloned in-frame into the expression vector pTrc99 (Amann et al. Gene, 69:301-315, (1988)) and transformed into the JM109 host. Expression of recombinant Amb a I and Amb a II protein was induced by 1 mM isopropyl-β-D-thiogalactopyranoside, cells were harvested, lysozyme treated, sonicated and insoluble inclusion bodies recovered by a low speed centrifugation. Recombinant Amb a I and Amb a II protein present in the recovered pellet was solubilized in buffer containing 8M urea, 50 mM Tris HC1 pH8.0, 50 mM NaCl, 1 mM EDTA, 1 mM dithiothreitol, 1 mM phenylmethylsulfonyl fluoride. After solubilization, the crude urea lysate was dialyzed at 4° C. against PBS. […] This antigenic cross-reactivity is consistent with the observed sequence homology of the cDNAs (see FIG. 16).
Comparison of human IgE binding to recombinant Amb a I and Amb a II proteins with anti-peptide and monoclonal anti-Amb a I antibodies have provided data consistent with the conclusion that the N-terminal portion (historically referred to as the β-region) of Amb a IA includes the major IgE eptiope(s).
Affinity purified Amb a I was electrophoresed, Western transferred (Towbin et al., Proc. Natl. Acad. Sci. USA, 76:4350 (1979)) and probed with a variety of antibodies, including IgE from an allergic patient (FIG. 17). In pollen extract Amb a I is not only present as an intact 38-KD species, but also characterized by its component 26KD alpha chains and 12-KD beta chains which are formed by enzymatic cleavage. The intact 38-KD species and the alpha chain are clearly detected using rabbit anti-Amb a I, polyclonal affinity purified anti-RAE 16 and monoclonal anti-Amb a I JBIE3-4 (FIG. 17); RAE 16 peptide has the sequence RTDKDLLENGAIC derived from amino-acids […] of Amb a IB, FIG. 16). Affinity purified Amb a I (partial sequence presented in Table 1) as well as chromatographically purified Amb a II (partial sequence presented in Table 2) are bound on Western blots by these antibodies as well as by patient IgE (FIG. 17). The goat anti-Amb a I polyclonal antibody also binds multiple Amb a I and Amb a II species on a two dimensional Western blot of pollen extract (FIG. 18). The Western blot was performed as outlined below. […]

[2] = system: rabbit anti-Amb a I polyclonal antibody; assay: Western blot with rabbit anti-Amb a I polyclonal antibody (FIG. 17); assay type: binding
Description: As is also represented in FIG. 1A, rabbit polyclonal antibodies were produced using the King Antigen E preparation. […] These antibodies were also shown, using a similar technique, to bind to the affinity purified Amb a I described previously (FIG. 17).
It is clear from the antibody reactivity that the 4B5/B7 affinity purified Amb a I has a recognition pattern similar to that of the Amb a I of pollen and skin test reagent with both rabbit polyclonal anti-Amb a I and JB1E3-4 anti-Amb a I monoclonal antibody (FIG. 17).
Affinity purified Amb a I was electrophoresed, Western transferred (Towbin et al., Proc. Natl. Acad. Sci. USA, 76:4350 (1979)) and probed with a variety of antibodies, including IgE from an allergic patient (FIG. 17). In pollen extract Amb a I is not only present as an intact 38-KD species, but also characterized by its component 26KD alpha chains and 12-KD beta chains which are formed by enzymatic cleavage. The intact 38-KD species and the alpha chain are clearly detected using rabbit anti-Amb a I, polyclonal affinity purified anti-RAE 16 and monoclonal anti-Amb a I JBIE3-4 (FIG. 17); RAE 16 peptide has the sequence RTDKDLLENGAIC derived from amino-acids 343-353 of Amb a IB, FIG. 16). […]

[3] = system: goat anti-Amb a I antibody; assay: Western blot of E. coli-expressed recombinant Amb a I / Amb a II with goat anti-Amb a I antibody (FIG. 19); assay type: binding
Procedure: as §1
Isoelectric focusing was done on a Hoeffer gel apparatus with 15 μg of crude soluble pollen protein. The gel consisted of 7.5% acrylamide with 3.5% Pharmalytes pH 4.5-5.3 (Pharmacia) and 3.5% Ampholines pH 3.5-10 (LKB), run at 13W for 3.5 hours until a constant voltage was reached. The gel section was placed on a slab of 10% acrylamide SDS-PAGE and electrophoresed for 3.5 hours at 40 mA according to the protocol cited. The proteins were transferred overnight in phosphate buffer to 0.1 micron nitrocellulose (Schleicher and Schuell) at 0.2A. The blot was rinsed in blot solution (25 mM Tris-CHl pH 7.5, 0.171 M NaCl, 0.05% Tween-20; Sigma). The first antibody incubation was overnight at room temperature with a […] of goat anti-Amb a I IgC (obtained from Dr. David Marsh) in blot solution. The excess first antibody was removed with three 15 minute rinses with blot solution. The second antibody was a 1:2,500 dilution of biotinylated swine anti-goat IgG (Boehringer-Manneheim) in blot solution for two hours. The blot was then rinsed with blot solution three times for 15 minutes and incubated for 1 hr in blot solution with 2 μCi I^125 streptavidin (Amersham). The blots were rinsed with blot solution until the waste wash was down to background. The blot was then exposed to film at —80° C. overnight. In the case of one-dimensional SDS-PAGE Western blots (FIGS. 17, 19 and 20) the isoelectric focusing step was omitted. When human sera was used to probe the Western blots (FIGS. 17 and 20), 10% human plasma in 1% milk in blot solution was incubated overnight with the blot prior to using as second antibody biotinylated goat anti-human IgE.

[4] = system: rabbit antisera directed against an Amb a II sequence (amino acid 326-338; RAE 50. K); assay: Western blot of recombinant proteins with monospecific anti-peptide antisera against RAE 50. K; assay type: binding; conditions: Western blots, data not shown
Description: Proteins or peptides encoded by the cDNA of the present invention can be used, for example, as “purified” allergens. Such purified allergens are useful in the standardization of allergen extracts which are key reagents for the diagnosis and treatment of ragweed allergy. Furthermore, by using peptides based on the sequences listed in FIGS. 2 through 16, anti-peptide antisera or monoclonal antibodies can be made using standard methods. Such reagents can be specifically directed against individual isoforms of Amb a I or Amb a II (i.e., directed against divergent regions/epitopes of the molecule) or can be specific for all forms Amb a I or Amb a II (i.e, directed against common sequences/epitopes). These sera or monoclonal antibodies, directed against Amb a I or Amb a II, can be used to standardize allergen extracts. One such monospecific anti-peptide antisera has already been successfully produced.

Molecule | Human IgE binding (in words) ([1]; Western blot (FIG. 17) and/or ELISA, ragweed allergic patient IgE) | Binding by rabbit anti-Amb a I polyclonal antibodies (in words) [2] | IgE binding, summarized Western blot data ([1]; patient 151) | IgE binding, summarized Western blot data ([1]; patient 222) | IgE binding, summarized Western blot data ([1]; patient 291) | IgE binding, summarized Western blot data ([1]; patient 295) | IgE binding, summarized Western blot data ([1]; patient 296) | Binding by goat anti-Amb a I antibody (in words) [3] | Binding by rabbit anti-RAE 50. K antisera (in words) [4]
chromatographically purified Amb a II: chromatographically purified Amb a II (Antigen K) from ragweed pollen (protein) GEEVDILPSPNDTRRSLQGCEAHNIIDKCWRCKPDWAENRQALGNCAQGFGKATHGGKWGDIYMVTSDQDDDVVNPKEGTLRFGATQDRPLWIIFQRDMIIYLQQEMVVTSDKTIDGRGAKVELVYGGITLMNVKNVIIHNIDIHDVRVLPGGRIKSNGGPAIPRHQSDGDAIHVTGSSDIWIDHCTLSKSFDGLVDVNWGSTGVTISNCKFTHHEKAVLLGASDTHFQDLKMHVTLAYNIFTNTVHERMPRCRFGFFQIVNNFYDRWDKYAIGGSSNPTILSQGNKFVAPDFIYKKNVCLRTGAQEPEWMTWNWRTQNDVLENGAIFVASGSDPVLTAEQNAGMMQAEPGDMVPQLTMNAGVLTCSPGAPC | bound | cross-reactive B-cell epitopes |  |  |  |  |  |  | 
Amb a II: E. coli expressed recombinant Amb a II (Antigen K) (protein) LYFTLALVTLVQAGRLGEEVDILPSPNDTRRSLQGCEAHNIIDKCWRCKPDWAENRQALGDCAQGFGKATHGGKWGDIYMVTSDQDDDVVNPKEGTLRFGATQDRPLWIIFQRDMIIYLQQEMVVTSDTTIDGRGAKVELVYGGITLMNVKNVIIHNIDIHDVRVLPGGRIKSNGGPAIPRHQSDGDAIHVTGSSDIWIDHCTLSKSFDGLVDVNWGSTGVTISNCKFTHHEKAVLLGASDTHFQDLKMHVTLAYNIFTNTVHERMPRCRFGFFQIVNNFYDRWDKYAIGGSSNPTILSQGNKFVAPDFIYKKNVCLRTGAQEPEWMTWNWRTQNDVLENGAIFVASGSDPVLTAEQNAGMMQAEPGDMVPQLTMNAGVLTCSPGAPC |  |  | + | + | +− | − | − | binds specifically | binds specifically
